From the Immune Epitope Database (IEDB) come the findings set out here.

One may read the Kd as the equilibrium constant for the complex coming apart. The term IC50 denotes the concentration needed to halve the response being measured.

Test [1] concerns the target HLA-B*57:01. Briefly: IEDB peptide-MHC binding, purified MHC/competitive/radioactivity; filed as Kd, often an IC50 or EC50 that approximates it; ≥ and ≤ were set here for values at or beyond the usual limits of such assays.
The target of test [2] is HLA-A*02:01. Briefly: IEDB peptide-MHC binding, purified MHC/direct/fluorescence; filed as Kd, often an IC50 or EC50 that approximates it; ≥ and ≤ were set here for values at or beyond the usual limits of such assays. To be noted: source organism: Reston ebolavirus.
The target in test [3] is HLA-C*03:03. Described as above.
Test [4] addresses HLA-A*03:01. The test is described as above.
Test [5] addresses HLA-B*27:03. Briefly: IEDB peptide-MHC binding, purified MHC/competitive/fluorescence; filed as Kd, often an IC50 or EC50 that approximates it; ≥ and ≤ were set here for values at or beyond the usual limits of such assays.
Test [6] concerns the target HLA-B*18:01. Described as above.
For test [7], the target named is HLA-A*26:01. The description is as above.
For test [8], the target named is HLA-B*57:01. The description is as above.
Test [9] deals with HLA-B*46:01. Described as above.
In test [10] the target is HLA-A*24:02. Briefly: IEDB peptide-MHC binding, purified MHC/competitive/fluorescence; ≥ and ≤ were set here for values at or beyond the usual limits of such assays.
The target in test [11] is HLA-A*02:01. The description is as above.
The target in test [12] is HLA-B*15:01. The test is described as above.
Test [13] deals with HLA-B*07:02. The test is described as above.
The target of test [14] is HLA-A*02:01. Briefly: IEDB peptide-MHC binding, purified MHC/competitive/fluorescence; filed as Kd, often an IC50 or EC50 that approximates it; ≥ and ≤ were set here for values at or beyond the usual limits of such assays.
Test [15] has as its target HLA-A*02:19. The description is as above. Particulars: source organism: Salmonella enterica subsp. enterica serovar Typhi.
The target in test [16] is HLA-A*02:03. The test is described as above. To be noted: source organism: Salmonella enterica subsp. enterica serovar Typhi.
In test [17] the target is HLA-B*51:01. The description is as above. To be noted: source organism: Salmonella enterica subsp. enterica serovar Typhi.
In test [18] the target is HLA-A*02:12. The test is described as above. Particulars: source organism: Salmonella enterica subsp. enterica serovar Typhi.
The target in test [19] is HLA-B*39:01. The description is as above. To be noted: source organism: Salmonella enterica subsp. enterica serovar Typhi.
Test [20] addresses HLA-B*15:01. The description is as above.
In test [21] the target is HLA-A*02:11. Described as above. To be noted: source organism: Salmonella enterica subsp. enterica serovar Typhi.
The target in test [22] is HLA-A*03:01. The test is described as above. To be noted: source organism: Salmonella enterica subsp. enterica serovar Typhi.
Test [23] has as its target HLA-A*29:02. The test is described as above. To be noted: source organism: Salmonella enterica subsp. enterica serovar Typhi.
For test [24], the target named is HLA-A*11:01. Briefly: IEDB peptide-MHC binding, purified MHC/competitive/fluorescence; ≥ and ≤ were set here for values at or beyond the usual limits of such assays. To be noted: source organism: Variola virus.
Test [25] deals with HLA-A*03:01. The description is as above. Particulars: source organism: Variola virus.
In test [26] the target is HLA-B*08:01. Briefly: IEDB peptide-MHC binding, purified MHC/direct/fluorescence; filed as Kd, often an IC50 or EC50 that approximates it; ≥ and ≤ were set here for values at or beyond the usual limits of such assays. To be noted: source organism: Escherichia coli O157:H7.
Test [27] has as its target HLA-B*58:01. The test is described as above. To be noted: source organism: Shigella flexneri.
The target in test [28] is HLA-A*31:01. The test is described as above. Particulars: source organism: Escherichia coli O157:H7.
Test [29] has as its target HLA-A*11:01. The description is as above. To be noted: source organism: Escherichia coli O157:H7.
Test [30] has as its target HLA-B*40:01. Described as above. To be noted: source organism: Escherichia coli O157:H7.
The target in test [31] is HLA-A*69:01. The test is described as above. Particulars: source organism: Escherichia coli O157:H7.
The target of test [32] is HLA-A*26:01. Described as above. To be noted: source organism: Escherichia coli O157:H7.
The target in test [33] is HLA-B*27:05. The test is described as above. Particulars: source organism: Escherichia coli O157:H7.
Test [34] has as its target HLA-B*44:02. The test is described as above. To be noted: source organism: Escherichia coli O157:H7.
Test [35] addresses HLA-B*57:01. Described as above. To be noted: source organism: Escherichia coli O157:H7.
For test [36], the target named is HLA-B*15:01. The description is as above. To be noted: source organism: Shigella flexneri.
Test [37] deals with HLA-B*15:17. The test is described as above. Particulars: source organism: Escherichia coli O157:H7.
Test [38] addresses HLA-A*01:01. The test is described as above. Particulars: source organism: Escherichia coli O157:H7.
Test [39] concerns the target HLA-C*12:03. Described as above. To be noted: source organism: Homo sapiens.
Test [40] deals with HLA-C*05:01. The test is described as above.
Setting [41] is: source organism: Zaire ebolavirus.
Where [42] appears, read: source organism: Sudan ebolavirus.
[43] abbreviates: source organism: Dengue virus 2 Jamaica/1409/1983.
Setting [44] is: source organism: Salmonella enterica subsp. enterica serovar Typhi.
[45] abbreviates: source organism: human gammaherpesvirus 4.
The mark [46] stands for this setting: source organism: Escherichia coli O139:H28 str. E24377A.

On to AVFTEENQW, for which the dissociation constant (Kd) in [1] (source organism: Dengue virus 3 Martinique/1243/1999) is 0.0495 µM.

In the case of ESSPNPTVEA, in test [1] (source organism: Dengue virus 2 Peru/IQT2913/1996), the dissociation constant (Kd) is 0.323 µM.

For the sequence FLSFASLFL, the dissociation constant (Kd) in [2] was not above 0.001 µM; in test [3] (setting [41]), 0.005 µM; in test [4] (setting [41]), not below 20 µM; in [5] (setting [41]) it was not below 20 µM; in [6] (setting [41]) it was not below 20 µM; in test [7] (setting [41]), not below 20 µM. The dissociation constant (Kd) in test [8] (setting [41]) and in test [9] (setting [41]) was not below 20 µM throughout. The values for the half-maximal inhibitory concentration (IC50) in test [10] (setting [41]), in test [11] (setting [41]) and in test [12] (setting [41]) were 0.276 µM, 0.0489 µM and 8.79 µM, respectively.

With GLMHNQNAL, the IC50 was determined as 36.6 µM in test [10] (setting [42]), 3.85 µM in test [11] (setting [42]), 12.4 µM in test [13] (setting [42]) and 11.5 µM in test [12] (setting [42]).

As to GSSPILSITI, in test [1] (setting [43]), the dissociation constant Kd is 0.114 µM.

HVTQHWPQL: the Kd in [5] (setting [44]), in test [14] (setting [44]), in [6] (setting [44]), in test [15], in test [16] and in test [17] was not below 20 µM each time. The Kd in test [18] was 7.05 µM; in [19], not below 20 µM; in [8] (setting [44]), not below 20 µM; in test [9] (setting [44]), not below 20 µM; in [20] (setting [44]) it was not below 20 µM; in test [21], not below 20 µM. Also, the dissociation constant (Kd) in [22] and in test [23] was not below 20 µM in each case.

In the case of IPLASLTPK, the IC50 in test [24] amounted to 6.66 µM; in test [10] (source organism: Variola virus), 22.1 µM; in test [13] (source organism: Variola virus), 5.73 µM; in [25], 66.6 µM.

As to ITIPIGLYL, the equilibrium dissociation constant (Kd) in [26] was not below 20 µM; in test [27], 0.0101 µM; in [28], not below 20 µM; in test [29], not below 20 µM; in test [30], not below 20 µM; in [31], not below 20 µM. Further, the Kd was 0.094 µM in test [3] (source organism: Escherichia coli O157:H7 str. EDL933); not below 20 µM in test [32]; not below 20 µM in test [33]; not below 20 µM in test [34]; 0.349 µM in test [35]; 2.97 µM in [36]. The dissociation constant (Kd) in test [4] (source organism: Escherichia coli O157:H7) was not below 20 µM; in test [37], 0.0018 µM; in test [38], not below 20 µM.

KAFQDVLYV showed a Kd in test [39] not above 0.001 µM.

Consider KTKLTDWDF, for which the Kd in test [1] (source organism: Dengue virus 4 Philippines/H241/1956) is 0.132 µM.

Take LGKSYAQMW: the Kd in [1] (setting [43]) was determined as 0.0927 µM.

With NIKRTLAAM, the half-inhibitory concentration (IC50) in [11] (setting [41]) was not below 458 µM; in test [13] (setting [41]), not below 128 µM.

Regarding PTAGILARW, the Kd in test [1] (source organism: Dengue virus 1 Brazil/97-11/1997) turned out to be 0.0127 µM.

For RVGRVNPGT, the IC50 in test [11] (source organism: Variola virus) came out at 11.4 µM; in test [13] (source organism: Variola virus), 21.4 µM.

On to SLDDYNHLV, for which the Kd in test [40] (source organism: Homo sapiens) is 0.278 µM; in test [3] (source organism: Homo sapiens), not below 20 µM.

Turning to YSQGAFTPL, the Kd in test [40] (setting [45]) was 3.08 µM; in [3] (setting [45]) it was not above 0.001 µM.

Regarding YTILNRKAI, the concentration for half-maximal inhibition (IC50) in test [10] (setting [42]) was 9.02 µM; in test [11] (setting [42]) it was not below 226 µM; in test [13] (setting [42]), 20.1 µM.

For the sequence YVVWLMFSL, the dissociation constant (Kd) in test [3] (setting [46]) is 2.19 µM; in test [14] (setting [46]), 0.312 µM; in test [7] (setting [46]), not below 20 µM; in [20] (setting [46]), not below 20 µM.
